Tests used:
[1] = biological target: T1, human BTLA extracellular domain with C-terminal mouse IgG2a Fc tag (human; mouse, UniProt Q7Z6A9 31-157); assay: blocking ELISA, huBTLA-mIgG2a Fc coated; competitor huHVEM-His (2 ug/ml)
T1 construct: also called huBTLA with mIgG2a Fc tag; not shown: mouse IgG2a Fc, C-terminal
T1 sequence: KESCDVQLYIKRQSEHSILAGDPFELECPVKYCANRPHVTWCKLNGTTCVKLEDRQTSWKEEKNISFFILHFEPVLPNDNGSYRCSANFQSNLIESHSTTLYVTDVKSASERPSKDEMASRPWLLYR
Description: HVEM blocking by purified recombinant chimeric antibodies by ELISA: Human HVEM (huHVEM) blocking ELISA was performed on purified recombinant chimeric anti-BTLA antibodies. Briefly, 384-well, clear flat bottom high binding plates (Corning, cat #3700) were coated overnight at 4° C. with 0.333 μg/mL purified huBTLA with mIgG2a Fc tag in PBS (coating solution). After removing the coating solution, the plates were blocked by adding blocking buffer and incubated at 37° C. for 1 hour. Plates were then washed 3 times with wash buffer. Serial dilution of purified chimeric antibodies in PBS were added to individual well followed by incubation at 37° C. for 1 hour. Plates were washed 3 times with wash buffer. Then 30 μL per well of 2 μg/ml human HVEM with His tag (Sino Biological, cat #10334-H08H) in assay buffer was added into the reaction and incubated for 1 hour. Plates were washed 3 times with wash buffer. Then 30 μL per well of mouse anti-his-AP (Southern Biotech, cat: 4603-04) at 1:500 dilution in ELISA diluent was added, and incubated at 37° C. for 30 min, then the plates were washed 5 times with wash buffer and developed for 30 minutes with 30 μL per well of pNPP substrate. Plates were analyzed with a Bio-TEK at 405 nm. The blocking IC₅₀ value represents the antibody concentration that inhibited 50% of huHVEM binding to coated human BTLA.

[2] = biological target: T2, human BTLA extracellular domain with C-terminal 10xHis tag (human, UniProt Q7Z6A9 31-157); assay: BLI (Octet RED96), antibody captured on AHC biosensor, His-tag-huBTLA in solution, 1:1 model
T2 construct: also called HuBTLA-His; His-tag-huBTLA
T2 sequence: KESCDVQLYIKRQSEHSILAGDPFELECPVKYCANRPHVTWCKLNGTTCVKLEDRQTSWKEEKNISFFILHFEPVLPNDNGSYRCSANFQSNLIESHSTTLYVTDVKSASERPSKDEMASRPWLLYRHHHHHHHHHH
Description: The following kinetic assay was performed using anti-human IgG Fc capture (AHC) biosensors (ForteBio) in kinetics buffer (PBS, 0.1% Tween-20 and 1% bovine serum albumin): (a) antibody (2 μg/mL) for 300 sec, (b) baseline for 120 sec, (c) association with purified His-tag-huBTLA (2.5, 0.5 and 0 μg/mL) and His-tag-rhesus monkey BTLA (Sino Biologcal, cat #90250-C08H) (2.5, 0.5 and 0 μg/mL) for 420 sec and (d) dissociation for 1200 sec. Data fitting and analysis was performed with Octet data analysis software 8.0 (ForteBio) using a 1:1 binding model after Savitzky-Golay filtering.

[3] = biological target: T3, huBTLA as coated in the binding ELISA of Example 3 (tag not stated) (human, UniProt Q7Z6A9 31-157); assay: ELISA, plate coated with huBTLA, detection with goat anti-human IgG Fc-AP, OD405
T3 construct: Detection was with anti-human IgG Fc
T3 sequence: T1 sequence
Description: (§1) BTLA binding of purified recombinant chimeric antibodies by ELISA: The huBTLA and rhesus monkey BTLA antigen binding ELISA was performed on the purified recombinant chimeric antibodies. Briefly, 384-well, clear flat bottom high binding plates (Corning, cat #3700) were coated overnight at 4° C. with 0.333 μg/mL of huBTLA or rhesus monkey BTLA in PBS. The following purified process was performed as described in ELISA binding assay in Example 2, except that the secondary antibody was goat anti human IgG Fc-AP (Southern Biotech, cat #2014-04).

[4] = biological target: T4, human BTLA (Uniprot Q7Z6A9) expressed on cells (human, UniProt Q7Z6A9 31-289); assay: cell-based or functional assay
[5] = biological target: T4, human BTLA (Uniprot Q7Z6A9) expressed …; assay: flow cytometry blocking on huBTLA-overexpressing Expi293 cells; competitor human HVEM-mouse IgG2a Fc
Description: Expi293 cells stably overexpressing huBTLA were incubated with chimeric anti-BTLA antibody 83F2 or 86B7 for 30 minutes at 4° C. The cells were washed, and then incubated with human HVEM-mouse IgG2a Fc recombinant protein (Acro Biosystems, cat #HVM-H5255) at […] concentration for 20 minutes at 4° C. The human HVEM bindings were detected by goat anti-mouse Alexa 488 secondary antibody (ThermoFisher, cat #A-11029). Cells were washed and acquired by flow cytometry with Attune. Data were analyzed with FlowJo software. BTLA binding is represented as MFI.

[6] = biological target: T5, rhesus monkey BTLA extracellular domain protein with His tag (Sino Biological, cat #90250-C08H) (rhesus monkey, UniProt G7MKA9 31-157); assay: ELISA, rhesus monkey BTLA coated at 0.333 ug/mL, anti-human IgG Fc-AP detection
T5 construct: extracellular domain; Bought protein; also called His-tag-rhesus monkey BTLA; not shown: His tag
T5 sequence: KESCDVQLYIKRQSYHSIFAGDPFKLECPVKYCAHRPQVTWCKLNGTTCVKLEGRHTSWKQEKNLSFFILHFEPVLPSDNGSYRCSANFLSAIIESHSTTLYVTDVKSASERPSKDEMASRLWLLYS
Description: as §1

[7] = biological target: T5, rhesus monkey BTLA extracellular domain …; assay: ELISA, plate coated with rhesus monkey BTLA, detection with goat anti-human IgG Fc-AP, OD405
Description: as §1

[8] = biological target: T6, extracellular domain of human BTLA with FAS, expressed on Jurkat cells (human, UniProt Q7Z6A9 31-157; P25445 174-335, limits assumed); assay: cell-based or functional assay
T6 sequence (looked up): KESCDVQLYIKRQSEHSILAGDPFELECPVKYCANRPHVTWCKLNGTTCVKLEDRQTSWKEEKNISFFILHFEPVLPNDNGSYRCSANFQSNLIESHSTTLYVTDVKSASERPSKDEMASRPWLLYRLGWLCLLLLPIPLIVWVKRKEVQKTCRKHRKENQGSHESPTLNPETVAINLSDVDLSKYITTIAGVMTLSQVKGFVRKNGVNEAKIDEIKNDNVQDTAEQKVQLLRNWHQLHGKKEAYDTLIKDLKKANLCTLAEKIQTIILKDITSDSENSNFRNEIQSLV

IC50 [1]: 1.02 nM
Kd [2]: 0.257 nM
koff [2]: 9.98e-05 s⁻¹
kon [2]: 389000 M⁻¹ s⁻¹
EC50 (read off the curve) [3]: ~0.4 nM
EC50 of recovery of IL-2 production, Raji-HVEM/Jurkat-BTLA coculture [4]: 0.554 nM
IC50 [5]: 0.259 nM
EC50 [6]: 0.0559 nM
EC50 (read off the curve) [7]: ~0.4 nM
EC50 of inhibition of huHVEM-Fc-induced apoptosis, Jurkat-huBTLA-FAS cells (ATP luminescence) [8]: 0.109 nM
B1: chimeric anti-BTLA antibody 86B7 (antibody, V domains shown)
VH: QVTLKESGPGILQPSQTLSLTCSFSGFSLSTFGMGVSWIRQPSGKGLEWLAHIYWDDDKRFNPSLKSRLSISKDTSNNQVFLKITTVDTADTATYYCARGNWDGETYFDYWGQGTTLTVSS
VL: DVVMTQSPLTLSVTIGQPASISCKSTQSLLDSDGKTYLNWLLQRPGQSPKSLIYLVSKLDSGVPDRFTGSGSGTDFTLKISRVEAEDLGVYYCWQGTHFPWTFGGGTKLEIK

Source: patent US20260035464A1 (STAIDSON BIOPHARMA, published 2026)
